Experimental data taken from publication PMC9482650, “Quantitative fragmentomics allow affinity mapping of interactomes” (Nature Communications, 2022).
Each block holds one binder with its values, some of them ahead of it.

Key:
Experiment in all cases: holdup assay
Parameters in all cases: key: below the threshold = too weak to quantify, mostly under pKd 3.1 to 4
Inadl_8, Q8NI35 = target: Inadl_8, Q8NI35
IL16_1, Q14005 = target: IL16_1, Q14005
GRIP2_3, Q9C0E4 = target: GRIP2_3, Q9C0E4
MAGI2_3, Q86UL8 = target: MAGI2_3, Q86UL8
DLG1_1, Q12959 = target: DLG1_1, Q12959
RAPGEF6, Q8TEU7 = target: T1, RAPGEF6, Q8TEU7
T1 sequence (Q8TEU7 525-625, limits assumed, looked up): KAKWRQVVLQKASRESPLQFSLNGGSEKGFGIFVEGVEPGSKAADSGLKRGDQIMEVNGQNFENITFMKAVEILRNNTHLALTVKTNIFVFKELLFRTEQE

DLG1_3, Q12959 = target: DLG1_3, Q12959
GRIP2_4, Q9C0E4 = target: GRIP2_4, Q9C0E4
DFNB31_1, Q9P202 = target: T2, DFNB31_1, Q9P202
T2 sequence (Q9P202 135-233, limits assumed, looked up): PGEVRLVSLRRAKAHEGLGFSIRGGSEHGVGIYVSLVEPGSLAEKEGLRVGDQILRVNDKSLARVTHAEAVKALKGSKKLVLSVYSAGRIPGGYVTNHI

GRIP1_3, Q9Y3R0 = target: T3, GRIP1_3, Q9Y3R0
T3 sequence (Q9Y3R0 247-346, limits assumed, looked up): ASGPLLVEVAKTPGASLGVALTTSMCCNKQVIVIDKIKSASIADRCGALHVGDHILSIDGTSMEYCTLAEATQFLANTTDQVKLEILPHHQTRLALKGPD

LIMK2, P53671 = target: LIMK2, P53671
RHPN1, Q8TCX5 = target: T4, RHPN1, Q8TCX5
T4 sequence (Q8TCX5 508-602, limits assumed, looked up): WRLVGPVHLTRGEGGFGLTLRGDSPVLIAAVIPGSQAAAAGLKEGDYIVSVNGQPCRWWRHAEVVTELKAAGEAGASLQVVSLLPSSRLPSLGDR

PARD3_3, Q8TEW0 = target: PARD3_3, Q8TEW0
SNTG1, Q9NSN8 = target: T5, SNTG1, Q9NSN8
T5 sequence (Q9NSN8 52-150, limits assumed, looked up): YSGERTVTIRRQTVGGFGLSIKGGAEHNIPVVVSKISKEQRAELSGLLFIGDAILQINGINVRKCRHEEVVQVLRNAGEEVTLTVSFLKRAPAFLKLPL

DLG4_2, P78352 = target: DLG4_2, P78352
LIN7C, Q9NUP9 = target: T6, LIN7C, Q9NUP9
T6 sequence (Q9NUP9 88-185, limits assumed, looked up): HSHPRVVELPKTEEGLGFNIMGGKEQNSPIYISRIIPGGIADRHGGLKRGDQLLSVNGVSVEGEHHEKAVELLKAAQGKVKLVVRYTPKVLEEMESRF

Inadl_2, Q8NI35 = target: Inadl_2, Q8NI35
ARHGEF11, O15085 = target: T7, ARHGEF11, O15085
T7 sequence (O15085 42-136, limits assumed, looked up): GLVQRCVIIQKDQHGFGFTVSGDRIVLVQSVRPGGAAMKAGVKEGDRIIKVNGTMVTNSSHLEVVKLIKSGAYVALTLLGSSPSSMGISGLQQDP

PDZRN4_1, Q6ZMN7 = target: PDZRN4_1, Q6ZMN7
DVL3, Q92997 = target: T8, DVL3, Q92997
T8 sequence (Q92997 244-331, limits assumed, looked up): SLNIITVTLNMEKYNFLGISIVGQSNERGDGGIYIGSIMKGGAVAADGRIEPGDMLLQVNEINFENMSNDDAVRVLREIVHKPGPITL

HTRA1, Q92743 = target: HTRA1, Q92743
FRMPD2_2, Q68DX3 = target: FRMPD2_2, Q68DX3
TIAM2, Q8IVF5 = target: T9, TIAM2, Q8IVF5
T9 sequence (Q8IVF5 885-986, limits assumed, looked up): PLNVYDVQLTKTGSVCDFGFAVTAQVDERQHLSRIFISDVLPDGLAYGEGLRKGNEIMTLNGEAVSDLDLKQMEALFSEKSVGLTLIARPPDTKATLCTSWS

DLG5_1, Q8TDM6 = target: DLG5_1, Q8TDM6
SNTG2, Q9NY99 = target: T10, SNTG2, Q9NY99
T10 sequence (Q9NY99 68-166, limits assumed, looked up): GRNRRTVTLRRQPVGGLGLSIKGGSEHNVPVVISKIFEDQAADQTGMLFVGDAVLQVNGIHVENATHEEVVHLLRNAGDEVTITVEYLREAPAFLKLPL

DFNB31_3, Q9P202 = target: T11, DFNB31_3, Q9P202
T11 sequence (Q9P202 811-907, limits assumed, looked up): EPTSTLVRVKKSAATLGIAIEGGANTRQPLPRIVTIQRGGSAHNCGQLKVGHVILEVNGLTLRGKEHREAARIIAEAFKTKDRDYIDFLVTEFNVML

DLG2_2, Q15700 = target: DLG2_2, Q15700
[1] = plain residues with an end cap or a label only (N-terminal biotin on a linker: ttds)
[2] = plain residues with an end cap or a label only (N-terminal biotin on a linker: ado-ado)

HTRA1, Q92743, sequence (Q92743 360-477): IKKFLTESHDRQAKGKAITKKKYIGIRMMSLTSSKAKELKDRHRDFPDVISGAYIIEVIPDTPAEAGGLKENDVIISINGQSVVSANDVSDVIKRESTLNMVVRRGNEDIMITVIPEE
GRIP2_3, Q9C0E4, sequence (Q9C0E4 238-339): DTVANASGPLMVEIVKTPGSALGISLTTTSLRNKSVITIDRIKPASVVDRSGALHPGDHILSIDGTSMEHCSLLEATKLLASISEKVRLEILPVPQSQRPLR
PDZRN4_1, Q6ZMN7, sequence (Q6ZMN7 213-318): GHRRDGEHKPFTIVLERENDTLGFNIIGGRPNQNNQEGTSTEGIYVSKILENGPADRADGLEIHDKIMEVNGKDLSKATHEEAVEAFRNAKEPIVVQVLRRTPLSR
MAGI2_3, Q86UL8, sequence (Q86UL8 600-682): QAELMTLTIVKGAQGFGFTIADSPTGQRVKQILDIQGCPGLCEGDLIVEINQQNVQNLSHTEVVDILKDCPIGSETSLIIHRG
GRIP2_4, Q9C0E4, sequence (Q9C0E4 446-548): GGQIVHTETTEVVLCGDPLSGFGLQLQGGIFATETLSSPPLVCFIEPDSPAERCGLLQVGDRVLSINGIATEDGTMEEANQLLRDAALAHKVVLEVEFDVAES
FRMPD2_2, Q68DX3, sequence (Q68DX3 944-1038): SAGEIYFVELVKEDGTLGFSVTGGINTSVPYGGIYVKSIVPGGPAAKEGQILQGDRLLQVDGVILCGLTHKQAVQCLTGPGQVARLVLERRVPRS
IL16_1, Q14005, sequence (Q14005 210-306): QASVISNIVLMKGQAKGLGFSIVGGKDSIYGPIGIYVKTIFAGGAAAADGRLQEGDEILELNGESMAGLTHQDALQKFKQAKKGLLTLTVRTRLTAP
Inadl_2, Q8NI35, sequence (Q8NI35 238-335): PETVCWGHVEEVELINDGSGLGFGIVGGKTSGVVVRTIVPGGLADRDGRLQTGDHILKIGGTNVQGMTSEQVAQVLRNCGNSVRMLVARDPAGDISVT
DLG5_1, Q8TDM6, sequence (Q8TDM6 617-713): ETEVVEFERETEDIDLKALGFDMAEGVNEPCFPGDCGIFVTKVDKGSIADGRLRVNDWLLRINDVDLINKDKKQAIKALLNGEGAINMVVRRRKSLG
DLG4_2, P78352, sequence (P78352 155-259): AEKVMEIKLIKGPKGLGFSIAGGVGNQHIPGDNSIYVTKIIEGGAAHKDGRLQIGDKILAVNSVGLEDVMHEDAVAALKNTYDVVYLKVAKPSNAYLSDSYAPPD
DLG2_2, Q15700, sequence (Q15700 189-283): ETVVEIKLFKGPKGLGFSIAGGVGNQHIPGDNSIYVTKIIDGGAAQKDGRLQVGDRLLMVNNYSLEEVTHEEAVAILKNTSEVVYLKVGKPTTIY
LIMK2, P53671, sequence (P53671 143-248): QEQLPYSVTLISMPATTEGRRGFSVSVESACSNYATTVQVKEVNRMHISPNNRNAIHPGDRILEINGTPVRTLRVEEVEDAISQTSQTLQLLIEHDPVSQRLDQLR
Inadl_8, Q8NI35, sequence (Q8NI35 1425-1530): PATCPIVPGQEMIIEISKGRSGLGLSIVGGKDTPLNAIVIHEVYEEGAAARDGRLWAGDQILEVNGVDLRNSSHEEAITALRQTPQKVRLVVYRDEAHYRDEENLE
PARD3_3, Q8TEW0, sequence (Q8TEW0 582-685): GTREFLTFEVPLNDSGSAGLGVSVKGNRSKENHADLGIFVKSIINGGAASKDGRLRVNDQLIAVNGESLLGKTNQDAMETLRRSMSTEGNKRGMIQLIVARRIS

- pKd (Inadl_8, Q8NI35; [1]): below the threshold
- pKd (IL16_1, Q14005; [1]): below the threshold
- pKd (GRIP2_3, Q9C0E4; [1]): below the threshold
- pKd (MAGI2_3, Q86UL8; [1]): 3.73
- pKd (DLG1_1, Q12959; [1]): 4.88
- pKd (RAPGEF6, Q8TEU7; [1]): 3.46
- pKd (DLG1_3, Q12959; [1]): 4.2
- pKd (GRIP2_4, Q9C0E4; [1]): below the threshold
- pKd (DFNB31_1, Q9P202; [1]): below the threshold
- pKd (GRIP1_3, Q9Y3R0; [1]): below the threshold
- pKd (LIMK2, P53671; [1]): below the threshold
- pKd (RHPN1, Q8TCX5; [1]): 3.93
- pKd (PARD3_3, Q8TEW0; [1]): below the threshold
- pKd (SNTG1, Q9NSN8; [1]): 4.16
- pKd (DLG4_2, P78352; [1]): 5.48
- pKd (LIN7C, Q9NUP9; [1]): 4.23
- pKd (Inadl_2, Q8NI35; [1]): below the threshold
- pKd (ARHGEF11, O15085; [1]): 3.91
- pKd (PDZRN4_1, Q6ZMN7; [1]): 4.15
- pKd (DVL3, Q92997; [1]): below the threshold
- pKd (HTRA1, Q92743; [1]): 3.75
- pKd (FRMPD2_2, Q68DX3; [1]): below the threshold
- pKd (TIAM2, Q8IVF5; [1]): below the threshold
- pKd (DLG5_1, Q8TDM6; [1]): below the threshold
- pKd (SNTG2, Q9NY99; [1]): 3.99
- pKd (DFNB31_3, Q9P202; [1]): below the threshold
- pKd (DLG2_2, Q15700; [1]): 5.24
B1: RASSF6, Q6ZTQ3 (peptide)
chain: KLVIKTETTV

- pKd (Inadl_8, Q8NI35; [2]): below the threshold
- pKd (IL16_1, Q14005; [2]): below the threshold
- pKd (GRIP2_3, Q9C0E4; [2]): below the threshold
- pKd (MAGI2_3, Q86UL8; [2]): below the threshold
- pKd (DLG1_1, Q12959; [2]): below the threshold
- pKd (RAPGEF6, Q8TEU7; [2]): below the threshold
- pKd (DLG1_3, Q12959; [2]): below the threshold
- pKd (GRIP2_4, Q9C0E4; [2]): below the threshold
- pKd (DFNB31_1, Q9P202; [2]): below the threshold
- pKd (GRIP1_3, Q9Y3R0; [2]): below the threshold
- pKd (LIMK2, P53671; [2]): below the threshold
- pKd (RHPN1, Q8TCX5; [2]): 3.75
- pKd (PARD3_3, Q8TEW0; [2]): below the threshold
- pKd (SNTG1, Q9NSN8; [2]): below the threshold
- pKd (DLG4_2, P78352; [2]): below the threshold
- pKd (LIN7C, Q9NUP9; [2]): below the threshold
- pKd (Inadl_2, Q8NI35; [2]): below the threshold
- pKd (ARHGEF11, O15085; [2]): below the threshold
- pKd (PDZRN4_1, Q6ZMN7; [2]): below the threshold
- pKd (DVL3, Q92997; [2]): below the threshold
- pKd (HTRA1, Q92743; [2]): 3.76
- pKd (FRMPD2_2, Q68DX3; [2]): below the threshold
- pKd (TIAM2, Q8IVF5; [2]): 3.8
- pKd (DLG5_1, Q8TDM6; [2]): below the threshold
- pKd (SNTG2, Q9NY99; [2]): below the threshold
- pKd (DFNB31_3, Q9P202; [2]): 3.99
- pKd (DLG2_2, Q15700; [2]): below the threshold
B2: FMNL3, Q8IVF7 (peptide)
chain: DAAHHDESNC
